This passage reports Kd results from publication PMC9352680, “A comprehensive thermodynamic model for RNA binding by the Saccharomyces cerevisiae Pumilio protein PUF4”.

T1: PUF4 RNA-binding domain (Saccharomyces cerevisiae, UniProt P25339 537-888)
T1 sequence: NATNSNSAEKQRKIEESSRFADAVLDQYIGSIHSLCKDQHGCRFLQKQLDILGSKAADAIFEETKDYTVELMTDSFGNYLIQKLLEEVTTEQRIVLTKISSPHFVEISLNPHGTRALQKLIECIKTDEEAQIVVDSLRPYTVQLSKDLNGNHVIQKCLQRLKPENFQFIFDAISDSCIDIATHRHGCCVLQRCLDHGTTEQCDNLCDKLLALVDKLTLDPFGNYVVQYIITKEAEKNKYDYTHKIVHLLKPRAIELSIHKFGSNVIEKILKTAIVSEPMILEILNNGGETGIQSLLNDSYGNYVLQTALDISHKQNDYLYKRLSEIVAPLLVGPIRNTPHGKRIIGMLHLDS

The target in this data set is T1, PUF4 RNA-binding domain. In words: Mg; RNA-MaP; 20 mM Na-HEPES pH 7.4, 30 mM KOAc, 0.75 mM MgCl2, 0.1% Tween-20, 5% glycerol, 0.1 mg/mL BSA, 2 mM DTT; 25 C; 0.0125-409.6 nM protein. The following applies: tags: N-His6-TEV cleaved; C-SNAP kept, Cy3B-labelled; label: tethered on chip by stalled RNA polymerase.
A word on the Kd: it is the free concentration of one partner at which half of the binding sites on the other are occupied at equilibrium, for simple one-to-one binding. Read a high Kd as a looser complex. With UCUCUUUCUUGUAAAUAUGUCUCUU (ssRNA) [Id_iii_S1_P3E.8_K3.4_C3.3_H3.1_A3.2_F3.1_T3.2_[A10G]], the Kd came out at 28.7 nM.
As for UCUCUUUCUUGUAUAUUAUUUCUCUU (ssRNA) [Id_iii_S1_P4E.5_K4.1_C4.3_H4.1_A4.1_F4.1_T4.2_[G10T]], the figure is 0.649 nM; as for UCUCUUCCUUGUAUAUUAGUUCUCUU (ssRNA) [Id_iii_S1_P4E.5_K4.1_C4.3_[T-3C]_H4.1_A4.1_F4.1_T4.2], 0.347 nM; as for UCUCUUUCAUAUAUAUAUAUCUCUU (ssRNA) [Id_iii_S1_P3E.6_K3.2_C3.3_[T-1A]_H3.2_A3.1_F3.1_T3.2], 592 nM.
UCUCUUUCUUAUAUAUUAUUUCUCUU (ssRNA) [Id_iii_S1_P4E.6_K4.2_C4.3_H4.2_A4.1_F4.1_T4.2_[G10T]] had a Kd of 15.1 nM.
UCUCUUUGUCUCAUUAUCUCUU (ssRNA) [Ib_S1_P5E.1_K5.1_C5.1_H5.1_[A4C]_A5.1_[T6C]_F5.1_T5.1] returned a Kd of 35.9 nM.
With UCUCUUUCUUGUAAAUAUCUCUCUU (ssRNA) [Id_iii_S1_P3E.8_K3.4_C3.3_H3.1_A3.2_F3.1_T3.2_[A10C]], binding was put at a Kd of 27.6 nM.
As for UCUCUUUCAUGUAUUUUAGUUCUCUU (ssRNA) [Id_iii_S1_P4E.8_K4.4_C4.3_[T-1A]_H4.1_A4.2_F4.1_T4.2], the figure is 1.37 nM; as for UCUCUUUGUUGUAUUUUAGUUCUCUU (ssRNA) [Id_iii_S1_P4E.8_K4.4_C4.3_[C-2G]_H4.1_A4.2_F4.1_T4.2], 2.23 nM.
Turning to UCUCUUUCUUGUAUUUUAGCUCUCUU (ssRNA) [Id_iii_S1_P4E.8_K4.4_C4.3_H4.1_A4.2_F4.1_T4.2_[T11C]], the affinity, expressed as Kd, was 1.07 nM.
UCUCUUUGUUGUAUAUUAGUUCUCUU (ssRNA) [Id_iii_S1_P4E.5_K4.1_C4.3_[C-2G]_H4.1_A4.1_F4.1_T4.2] returned a Kd of 0.332 nM.
Turning to UCUCUUUUUUGUAUAUUAGUUCUCUU (ssRNA) [Id_iii_S1_P4E.5_K4.1_C4.3_[C-2T]_H4.1_A4.1_F4.1_T4.2], the Kd was 0.395 nM.
As for UCUCUUUCUACACUAUUAAUUCUCUU (ssRNA) [Id_iii_S1_P4E.7_K4.3_C4.3_H4.3_A4.1_F4.1_T4.2_[G10A]], the figure is more than 2300 nM; as for UCUCUUUCGUGUAUUUUAGUUCUCUU (ssRNA) [Id_iii_S1_P4E.8_K4.4_C4.3_[T-1G]_H4.1_A4.2_F4.1_T4.2], 1.23 nM; as for UCUCUUUAUUGUAUAUUAGUUCUCUU (ssRNA) [Id_iii_S1_P4E.5_K4.1_C4.3_[C-2A]_H4.1_A4.1_F4.1_T4.2], 0.362 nM.
UCUCUUUCAUGUAUAUUAGUUCUCUU (ssRNA) [Id_iii_S1_P4E.5_K4.1_C4.3_[T-1A]_H4.1_A4.1_F4.1_T4.2] displayed a Kd of 0.332 nM.
As for UCUCUUUUUACACUAUUAGUUCUCUU (ssRNA) [Id_iii_S1_P4E.7_K4.3_C4.3_[C-2T]_H4.3_A4.1_F4.1_T4.2], the figure is 1680 nM.
As for UCUCUUUCUUAUAUAUUACUUCUCUU (ssRNA) [Id_iii_S1_P4E.6_K4.2_C4.3_H4.2_A4.1_F4.1_T4.2_[G10C]], the figure is 15.9 nM; as for UCUCUUUUUUGUAAAUAUAUCUCUU (ssRNA) [Id_iii_S1_P3E.8_K3.4_C3.3_[C-2T]_H3.1_A3.2_F3.1_T3.2], 17.6 nM; as for UCUCUUUGUACACUAUAUAUCUCUU (ssRNA) [Id_iii_S1_P3E.7_K3.3_C3.3_[C-2G]_H3.3_A3.1_F3.1_T3.2], 1.32 nM.
Turning to UCUCUUUCAACACUAUAUAUCUCUU (ssRNA) [Id_iii_S1_P3E.7_K3.3_C3.3_[T-1A]_H3.3_A3.1_F3.1_T3.2], the Kd is 1700 nM.
For UCUCUUGCUUGUAAAUAUAUCUCUU (ssRNA) [Id_iii_S1_P3E.8_K3.4_C3.3_[T-3G]_H3.1_A3.2_F3.1_T3.2] the value was 20.2 nM.
As for UCUCUUUCGUGUAAAUAUAUCUCUU (ssRNA) [Id_iii_S1_P3E.8_K3.4_C3.3_[T-1G]_H3.1_A3.2_F3.1_T3.2], the figure is 18.6 nM; as for UCUCUUUCAUGUAAAUAUAUCUCUU (ssRNA) [Id_iii_S1_P3E.8_K3.4_C3.3_[T-1A]_H3.1_A3.2_F3.1_T3.2], 19.7 nM.
For the molecule UCUCUUUUUUAUAUAUUAGUUCUCUU (ssRNA) [Id_iii_S1_P4E.6_K4.2_C4.3_[C-2T]_H4.2_A4.1_F4.1_T4.2], the Kd came out at 11 nM.
As for UCUCUUUCUACACUAUAUUUCUCUU (ssRNA) [Id_iii_S1_P3E.7_K3.3_C3.3_H3.3_A3.1_F3.1_T3.2_[A10T]], the figure is 2010 nM; as for UCUCUUUCUUGUAAAUAAAUCUCUU (ssRNA) [Id_iii_S1_P3E.8_K3.4_C3.3_H3.1_A3.2_F3.1_T3.2_[T9A]], 40.2 nM; as for UCUCUUUUUACACUAUAUAUCUCUU (ssRNA) [Id_iii_S1_P3E.7_K3.3_C3.3_[C-2T]_H3.3_A3.1_F3.1_T3.2], 2050 nM.
For UCUCUUUCCUGUAAAUAUAUCUCUU (ssRNA) [Id_iii_S1_P3E.8_K3.4_C3.3_[T-1C]_H3.1_A3.2_F3.1_T3.2] the value was 11.1 nM; for UCUCUUUGUUUGAUUAUCUCUU (ssRNA) [Ib_S1_P5E.1_K5.1_C5.1_H5.1_[A4T]_A5.1_[T6G]_F5.1_T5.1], 122 nM; for UCUCUUUCUACACUAUUAUUUCUCUU (ssRNA) [Id_iii_S1_P4E.7_K4.3_C4.3_H4.3_A4.1_F4.1_T4.2_[G10T]], more than 2300 nM.
As for UCUCUUUAUUGUAAAUAUAUCUCUU (ssRNA) [Id_iii_S1_P3E.8_K3.4_C3.3_[C-2A]_H3.1_A3.2_F3.1_T3.2], the figure is 18.2 nM.
UCUCUUACUUGUAAAUAUAUCUCUU (ssRNA) [Id_iii_S1_P3E.8_K3.4_C3.3_[T-3A]_H3.1_A3.2_F3.1_T3.2] gave a Kd of 25.7 nM.
UCUCUUUCGUGUAUAUUAGUUCUCUU (ssRNA) [Id_iii_S1_P4E.5_K4.1_C4.3_[T-1G]_H4.1_A4.1_F4.1_T4.2] showed a dissociation constant (Kd) of 0.46 nM.
As for UCUCUUUGUACACUAUUAGUUCUCUU (ssRNA) [Id_iii_S1_P4E.7_K4.3_C4.3_[C-2G]_H4.3_A4.1_F4.1_T4.2], the affinity, expressed as Kd, was 1.04 nM.
UCUCUUUCCUGUAUUUAAGUUCUCUU (ssRNA) [Id_iii_S1_P4E.9_K4.5_C4.3_[T-1C]_H4.1_A4.2_F4.2_T4.2]: binding was characterised by a dissociation constant (Kd) of 460 nM.
As for UCUCUUUCUUGUAUAUUACUUCUCUU (ssRNA) [Id_iii_S1_P4E.5_K4.1_C4.3_H4.1_A4.1_F4.1_T4.2_[G10C]], the figure is 1.02 nM; as for UCUCUUUCUUGUAUUUUAUUUCUCUU (ssRNA) [Id_iii_S1_P4E.8_K4.4_C4.3_H4.1_A4.2_F4.1_T4.2_[G10T]], 2.43 nM; as for UCUCUUUAUACACUAUUAGUUCUCUU (ssRNA) [Id_iii_S1_P4E.7_K4.3_C4.3_[C-2A]_H4.3_A4.1_F4.1_T4.2], 39.2 nM.
Turning to UCUCUUCCUUGUAAAUAUAUCUCUU (ssRNA) [Id_iii_S1_P3E.8_K3.4_C3.3_[T-3C]_H3.1_A3.2_F3.1_T3.2], binding was characterised by a dissociation constant (Kd) of 16.5 nM.
UCUCUUUCUACACUAUUACUUCUCUU (ssRNA) [Id_iii_S1_P4E.7_K4.3_C4.3_H4.3_A4.1_F4.1_T4.2_[G10C]]: the Kd was found to be 2190 nM.
In turn, UCUCUUUCUUAUAUAUAUGUCUCUU (ssRNA) [Id_iii_S1_P3E.6_K3.2_C3.3_H3.2_A3.1_F3.1_T3.2_[A10G]] showed a Kd of 755 nM.
For UCUCUUUCUUGUAUUUUAAUUCUCUU (ssRNA) [Id_iii_S1_P4E.8_K4.4_C4.3_H4.1_A4.2_F4.1_T4.2_[G10A]] the value was 3.62 nM; for UCUCUUUGUCUAAUUAUCUCUU (ssRNA) [Ib_S1_P5E.1_K5.1_C5.1_H5.1_[A4C]_A5.1_[T6A]_F5.1_T5.1], 115 nM; for UCUCUUUGUUGUAUUUAAGUUCUCUU (ssRNA) [Id_iii_S1_P4E.9_K4.5_C4.3_[C-2G]_H4.1_A4.2_F4.2_T4.2], 155 nM.
For UCUCUUUCUUAUAUAUUAGCUCUCUU (ssRNA) [Id_iii_S1_P4E.6_K4.2_C4.3_H4.2_A4.1_F4.1_T4.2_[T11C]] the value was 8.45 nM; for UCUCUUUCUACACUAUACAUCUCUU (ssRNA) [Id_iii_S1_P3E.7_K3.3_C3.3_H3.3_A3.1_F3.1_T3.2_[T9C]], 2260 nM; for UCUCUUUUUUGUAAAAAUAUCUCUU (ssRNA) [Id_iii_S1_P3E.9_K3.5_C3.3_[C-2T]_H3.1_A3.2_F3.2_T3.2], 78.2 nM.
Regarding UCUCUUUUUUGUAUUUAAGUUCUCUU (ssRNA) [Id_iii_S1_P4E.9_K4.5_C4.3_[C-2T]_H4.1_A4.2_F4.2_T4.2], the Kd was found to be 618 nM.
As for UCUCUUUGUUUCAUUAUCUCUU (ssRNA) [Ib_S1_P5E.1_K5.1_C5.1_H5.1_[A4T]_A5.1_[T6C]_F5.1_T5.1], the figure is 24.4 nM.
Consider UCUCUUUCGUGUAUUUAAGUUCUCUU (ssRNA) [Id_iii_S1_P4E.9_K4.5_C4.3_[T-1G]_H4.1_A4.2_F4.2_T4.2], for which the Kd turned out to be 694 nM.
As for UCUCUUACUACACUAUAUAUCUCUU (ssRNA) [Id_iii_S1_P3E.7_K3.3_C3.3_[T-3A]_H3.3_A3.1_F3.1_T3.2], binding was put at a Kd of 900 nM.
Consider UCUCUUUAUACACUAUAUAUCUCUU (ssRNA) [Id_iii_S1_P3E.7_K3.3_C3.3_[C-2A]_H3.3_A3.1_F3.1_T3.2], for which the dissociation constant Kd is 31.6 nM.
For UCUCUUUGUGUAAUUAUCUCUU (ssRNA) [Ib_S1_P5E.1_K5.1_C5.1_H5.1_[A4G]_A5.1_[T6A]_F5.1_T5.1] the value was 27.5 nM; for UCUCUUUCUUAUAUAUACAUCUCUU (ssRNA) [Id_iii_S1_P3E.6_K3.2_C3.3_H3.2_A3.1_F3.1_T3.2_[T9C]], 972 nM; for UCUCUUUUUUGUAUUUUAGUUCUCUU (ssRNA) [Id_iii_S1_P4E.8_K4.4_C4.3_[C-2T]_H4.1_A4.2_F4.1_T4.2], 1.81 nM.
As for UCUCUUUCUUAUAUAUUAAUUCUCUU (ssRNA) [Id_iii_S1_P4E.6_K4.2_C4.3_H4.2_A4.1_F4.1_T4.2_[G10A]], the figure is 18.1 nM.
